Measurements reported in publication PMC2777425.

Target: T1, K752G844 (winged-helix domain) (UniProt Q54324 752-844)
T1 sequence: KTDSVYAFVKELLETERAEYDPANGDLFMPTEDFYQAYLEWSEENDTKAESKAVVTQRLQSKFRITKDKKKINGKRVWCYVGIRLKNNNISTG
Assay: fluorescence anisotropy

Question: How did the “apparent K (half saturation)” value turn out when TCTTCTGTGCACTCTTC (ssDNA) [17-mer ss] was run?
Answer: 1600 nM
